Changes are numbered by the printed parent chain. Values joined by “and” are separate entries in the source; they are usually repeats but may differ in a detail not shown here. Identical values can stand only once. *1 amine or outer side, *2 acyl side, *3 side chain or, on linkers, in order; H or OH if unused. Bridges are numbered along the chain shown (N, C = ends). Where no end group is shown, it is not given here. Lys(Aoa) = NOCC(=O)NCCCC[C@H](N[*:1])C(=O)[*:2]
T1: CR1 cyclic peptide of human LRP-8 (human, disulfide 1-13)
T1 construct: also called CR1 peptide; conjugated human LRP-8 CR1 peptide
T1 peptide: CEKDQFQSRNERCIPSVWR-{Lys(Aoa)-NH2}

B1: anti-LRP-8 BGK.5D10.E4 [r/m IgG2a/K] (antibody, V domains shown)
VH: QVQLRETGPDLVQPTQTLSLTCTVSGFSLTNYPVQWVRQPPGSGLEWLGIMWPSGAADFNPALKSRLSISRDTSKSQFFLRMDNLQTDDTAIYFCARGRGYSSPYAMDAWGQGTSVTVSS
VL: DIQMTQSPASLSASLGETVSIECLASEDIYNNLAWYQQKPGKSPHLLIHFTSNLQDGVPSRFSGSGSGTQYSLKINSLESEDGATYFCLQDSEYPLTFGSGTKLEIK
notes: Rat variable domains on mouse IgG2a/kappa
B2: anti-LRP-8 BGK.6E3.F4 [r/m IgG2a/K] (antibody, V domains shown)
VH: EVQLVESGGGLVQPGKSLKLSCAASGFTFSDYNMAWVRQAPKKGLEWVATIMYDGSRTFYRDSVKGRYTFSRDNAKSTLYLQMDSLRSEDTATYYCATGRNWFAYWGQGTLVTVSS
VL: DIIMTQSPSSLAVSAGETVTINCKSSQSLLSSGKQKNYLAWYQQKPGQSPKLLIYLASTRESGVPDRFIGSGSGTDFTLTISSMQAEDLAIYYCQQHYDTPLTFGSGTKLEIK
notes: as for B1
B3: anti-LRP-8 BGK.2C8.E6.D3 [r/m IgG2a/K] (antibody, V domains shown)
VH: QVTLKESGPGILQPSQTLSLTCTFSGFSLNTYGMGVGWVRQPSGKGLEWLANIWWDDDKFYNPSLKNRLTVSKDTSNNQAFLRITNGDTADTATYFCARILGEDIGGALDAWGQGTSVTVSS
VL: DTVLTQSPALAVSPGERVSISCRASEGVNSYMHWYQQNPGQQSKLLIYRTSNLASGVPARFGGSGSGTDFTLTIDPVEADDTATYFCQQSWNDPPTFGGGTKLELK
B4: anti-LRP-8 ML199-11H1.5B2 murine antibody (muFc) (antibody, V domains shown)
VH: EVQLVESGGDLVKPGGSLKLSCAASRFTFSNYGMSWVRQTPDKRLEWVATISSGGRYTYYPDSVKGRFTISRDNAKNTLYLQMSSLRSEDTAMYYCARDYLYAMDYWGQGTSVTVSS
VL: DVVMTQTPLSLPVSLGDQASISCRSSQSLVYSNGNTYLHWYLQKPGQSPKVLMYKVSNRFSGVSDRFSGSGSGTDFTLKISRVEAEDLGVYFCSQSTHVPLTFGAGTKLELK
notes: Mouse Fc form (muFc); also called ML199-11H1-5B2 muFc; anti-LRP-8,11H1.5B2
B5: anti-LRP-8 ML201-8F3.3D7 murine antibody (muFc) (antibody, V domains shown)
VH: B4 VH with Y32F
VL: B4 VL
notes: Mouse Fc form; also called ML201-8F3-3D7 muFc; CL-33866
B6: anti-LRP-8 antibody ab58216 (mFc) (antibody, V domains shown)
VH: EVHLQQSGPEVVKPGASVKISCKASGYIISGYFLNWVKQSHGKSLEWVGRINPYSGDTFFNQKFKGKATLTVDKSSNTAHMELRSLTSEDSAVFYCAREDIGRFAYWGQGTLVTVSA
VL: DVLMTQTPLSLPVSLGDQASISCRSSQTIVHSNGNTYLEWYLQKPGQSPKLLIYKVSNRFSGVPDRFSGSGSGTDFTLKISRVEAEDLGVYYCFQGSHAPPTFGGGTKLEIK
notes: Mouse Fc form
B7: anti-LRP-8 ML201-2B4.2B1.2H10 murine antibody (muFc) (antibody, V domains shown)
VH: DVKLVASGGGLVKPGGSLKLSCAASGFTLSRYAMSWVRQTPEKRLEWVAYIRNGGDYIYYADTVKGRFTISRDNARNTLYLQMSSLKSEDTAMYYCTREGSYYNFDYWGQGTTLTVSS
VL: B6 VL with T28S, K50N, Y54F, S68I, A99V, P101W
notes: Mouse Fc form; also called ML201-2B4.2B1.2H10 muFc; CL-33867
B8: anti-LRP-8 antibody CL-135325 (antibody, V domains shown)
VH: EVQLVQSGGGLVQPGGSLRLSCAASGFTFSIYAMSWVRQAPGKGLEWVSVISCSAGSTYYADSVKGRFTISRDNSKNTLYLQMNSLRAEDTAVYYCARHSVHEEFPFDVWGQGTLVTVSS
VL: DIQMTQSPSSLSASVGDRVTITCRASQSIGSYLNWYQQKPGKAPKLLIYAASSLQSGVPSRFSGSGSGTDFTLTISSLQPEDFATYYCQQSYIPPLTFGGGTKVEIK
B9: anti-LRP-8 antibody CL-135359 (antibody, V domains shown)
VH: EVQLVQSGGGLVQPGGSLRLSCAASGFTFSSYAMSWVRQAPGKGLEWVSVISCSGGTTYYADSVKGRFTISRDNSKNTLYLQMNSLRAEDTAVYYCARNGGQFDLWGQGTLVTVSS
VL: B8 VL with S28G, G30C, S31T, I93N
B10: anti-LRP-8 BGK-9D10-2 antibody (CL-105967) (antibody, V domains shown)
VH: EVQLVESGGGLVQSGRSLKLSCAASGFTFSNYYMAWVRQAPKKGLEWVATITTSGSRSFYPDSVKGRFTISRDNAKSSLYLQINSLKSEDTATYYCARRGPLGYFDHWGRGVMVTVSS
VL: DIQMTQSPPSLPASLGDKVTITCQASQNINKYIAWYQQKPGKAPRLLIRFTSTLESDTPSRFSGSGSGRDYSFSISNVESEDFASYYCLHYDNLPPWTFGGGTKLELK
notes: also called BGT-9D10-2
B11: anti-LRP-8 BGK-2C8.8C antibody (antibody, V domains shown)
VH: EVQLVESGGGLVQPGRSLKLSCAASGFTVSDYYMAWVRQAPKKGLEWVASISYEGSSTYYGDSVKGRFTISRDNAKSILYLQMNSLRSEDTATYYCARPLRYYGYNYRFAYWGQGTLVTVSS
VL: DIQMSQSPPVLSASVGDRVTLSCKASQNIHKNLDWYQQKHGEAPKLLIYYTDNLQTGIPSRFSGSGSGTDYTLTISSLQPEDVATYYCYQYNSGPTFGAGTKLELQ
B12: anti-LRP-8 BGK-7A11 chimeric antibody (CL-105959) (antibody, V domains shown)
VH: QVTLKESGPGILQPSQTLSLTCTFSGFSLSTYGMGVGWIRQPAGTGLEWLANIWWDDDKYYNPSLKNRLTISKDTSNNQVFLKITNVDTADTATYYCARTTKPYYFDYWGQGVMVTVSS
VL: HFVLAQPNSVSTNLGSTVKLSCKRSTGNSGSNYVNWYQQYEGRSPTTMIYRDDKRPDGVPDRFSGSIDRSSNSALLTINNVQTEDEADYFCQSYSSGINIFGGGTKLTVL
B13: anti-LRP-8 BGK-7F7 chimeric antibody (CL-105960) (antibody, V domains shown)
VH: B12 VH with M34L, A43S, T45K, D58A, V80A, T85P, T94R
VL: B12 VL with G27A, S29I, Y40H, M48L, K54R
B14: anti-LRP-8 BGK-6B5-2 chimeric antibody (CL-105969) (antibody, V domains shown)
VH: B12 VH with T3S, K5Q, Y32F, A43S, T45K, V80A, T101A, Q111H
VL: B12 VL with S16N, S29I, Y40H, M48L, I67F, S95N, I100F
B15: chimeric anti-LRP-8 ML201-8F3.3D7 antibody (antibody, V domains shown)
VH: B4 VH with Y32F
VL: B4 VL
notes: also called ML201.8F3.3D7 hFc; CL-33866
B16: anti-LRP-8 BGK-2H4 chimeric antibody (CL-105945) (antibody, V domains shown)
VH: EVQLVESGGGLVQPGRSMKLSCAASGFTFSSFPMAWVRQAPTKGLEWVATVSTRGGHTYYRDSVKGRFTISRDNAKNTLYLQMNSLRSEDTATYYCIREGTSLFAYWGQGTLVTVSS
VL: DIQMTQSPPSLSASLGETVSIECLASEDISNYLAWYQQKPGKSPQLLIYYANSLEDGVPSRFSGSGSGTQYSLKISNMQPEDEGVYHCQQGYNYPYTFGAGTKLELK

These binders were tested against T2, Cynomolgus monkey LRP-8 expressed on HEK293 cells (cynomolgus monkey) (assay: cell-based binding on CYNO LRP8-HEK293, supernatant 1:125).
T2 construct: whole, on cells; also called cyno LRP-8; cLRP-8

| fold over isotype control | Binder |
| --- | --- |
| 28.2 fold | B1 |
| 0.87 fold | B2 |
| 13.7 fold | B3 |

Each binder was assayed against T3, Human LRP-8 (isoform 3) expressed on cells (human, UniProt Q14114 33-963) (assay: huLRP-8 cell-based binding).
T3 construct: also called hLRP-8; huLRP-8
T3 sequence (Q14114 other isoform, or with tags, fused parts or gaps limits assumed): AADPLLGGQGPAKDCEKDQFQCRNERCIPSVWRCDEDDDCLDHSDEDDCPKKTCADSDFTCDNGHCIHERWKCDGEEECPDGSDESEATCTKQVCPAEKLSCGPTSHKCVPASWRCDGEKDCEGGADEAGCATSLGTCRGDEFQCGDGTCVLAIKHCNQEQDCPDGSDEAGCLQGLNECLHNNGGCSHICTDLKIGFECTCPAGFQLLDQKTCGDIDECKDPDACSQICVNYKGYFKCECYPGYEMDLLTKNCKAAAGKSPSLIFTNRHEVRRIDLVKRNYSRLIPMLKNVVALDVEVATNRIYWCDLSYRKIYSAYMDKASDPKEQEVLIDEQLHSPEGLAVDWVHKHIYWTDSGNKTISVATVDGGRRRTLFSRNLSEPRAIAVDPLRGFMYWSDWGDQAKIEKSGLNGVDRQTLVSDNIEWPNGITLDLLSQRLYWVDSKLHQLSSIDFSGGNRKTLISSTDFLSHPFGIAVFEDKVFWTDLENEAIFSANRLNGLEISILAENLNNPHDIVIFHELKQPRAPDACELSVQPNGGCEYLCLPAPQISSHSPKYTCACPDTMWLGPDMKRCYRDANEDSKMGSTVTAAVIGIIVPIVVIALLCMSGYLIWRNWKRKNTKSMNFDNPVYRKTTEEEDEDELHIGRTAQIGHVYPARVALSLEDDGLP

| EC50 | Binder |
| --- | --- |
| 0.4 nM | B4 |

Each binder was assayed against T2, Cynomolgus monkey LRP-8 expressed on … (assay: cell-based binding on CYNO LRP8-HEK293, supernatant 1:5).

| fold over isotype control | Binder |
| --- | --- |
| 5.85 fold | B1 |
| 0.41 fold | B2 |
| 5.16 fold | B3 |

The binders below were run against T2, Cynomolgus monkey LRP-8 expressed on … (assay: cell-based ECL-MSD, 10 ug/ml Ab, cyno-LRP-8-HEK293).
Procedure: (§1) A cell-based ECL-MSD binding assay was used to determine antibody affinity. HEK293 cells overexpressing human, monkey or mouse LRP-8 were added onto MSD 96-well plate (MSD Cat# L15XB-3/L11XB-3) and incubated at 37° C. for one hour. Cells were blocked using 15% FBS (Hyclone, Thermo Scientific Cat# SH300700.03) at RT for 30 minutes with mild agitation. Plates were washed with DPBS three times and Abs or DVD-Ig binding proteins were added to the well. After incubation at RT for one hour, plates were washed with DPBS and goat anti-human or anti-mouse Sulfo TAG (MSD Cat#R32AJ-1) was added. Plates were incubated at RT for one hour, washed with DPBS and immersed in MSD read buffer (MSD Cat#R92TD-2) before reading on a MSD SECTOR Imager 6000. EC50 values were obtained using Xlfit4 software system.

| fold over mIgG control | Binder |
| --- | --- |
| 7 fold | B4 |
| 5.2 fold | B5 |
| 1.2 fold | B6 |
| 2.8 fold | B7 |

These binders were tested against T2, Cynomolgus monkey LRP-8 expressed on … (assay: FACS, cyno LRP8 cells).

| FACS (ratio +/-) | Binder |
| --- | --- |
| 16.5 ratio | B8 |
| 12.6 ratio | B9 |

Biological target: T1, CR1 cyclic peptide of human LRP-8
Assay: ELISA using CR1 peptide

| OD450 | Binder |
| --- | --- |
| 0.17 OD450 | B8 |
| 0.1 OD450 | B9 |

What follows are binders tested against T2, Cynomolgus monkey LRP-8 expressed on … (assay: cell-based binding on CYNO LRP8-HEK293, supernatant 1:25).

| fold over isotype control | Binder |
| --- | --- |
| 30.2 fold | B1 |
| 1.02 fold | B2 |
| 13.8 fold | B3 |

Each binder was assayed against T3, Human LRP-8 (isoform 3) expressed on … (assay: cell-based or functional assay).

| Endocytosis, fold over IgG control | Transcytosis, fold over IgG control | Binder |
| --- | --- | --- |
| 1.7 fold | 2 fold | B4 |
| 1.6 fold | 1.08 fold | B5 |
| 2.6 fold | 1.53 fold | B6 |
| 1.8 fold | 1.44 fold | B7 |

What follows are binders tested against T2, Cynomolgus monkey LRP-8 expressed on … (assay: cell-based MSD-ECL binding on cells overexpressing cyno LRP-8 variant 1 (cynoLRP8 assay)).
Procedure: as §1

| EC50 | Binder |
| --- | --- |
| 0.12 µg/mL and 0.6 nM | B10 |
| 0.0881 µg/mL and 0.44 nM | B11 |

The binders below were run against T3, Human LRP-8 (isoform 3) expressed on … (assay: cell-based MSD-ECL binding on cells overexpressing human LRP-8 variant 3 (hLRP8 assay)).
Procedure: as §1

| EC50 | Binder |
| --- | --- |
| 0.108 µg/mL and 0.54 nM | B10 |
| 0.55 µg/mL and 2.75 nM | B11 |

The binders below were run against T3, Human LRP-8 (isoform 3) expressed on … (assay: cell-based ECL-MSD, 10 ug/ml Ab, human_LRP-8_HEK293).
Procedure: as §1

| fold over mIgG control | Binder |
| --- | --- |
| 15.1 fold | B4 |
| 13.6 fold | B5 |
| 17.3 fold | B6 |
| 14.2 fold | B7 |

What follows are binders tested against T3, Human LRP-8 (isoform 3) expressed on … (assay: cell-based binding assay, hLRP8).

| EC50 | Binder |
| --- | --- |
| 2.29 nM | B10 |
| 2.62 nM | B11 |
| 0.24 nM | B1 |
| 0.12 nM | B12 |
| 0.11 nM | B13 |
| 0.15 nM | B14 |
| 0.11 nM | B2 |
| 0.1 nM | B3 |
| 0.16 nM | B15 |
| 0.21 nM | B16 |

Each binder was assayed against T2, Cynomolgus monkey LRP-8 expressed on … (assay: cell-based binding assay, cynoLRP8).

| EC50 | Binder |
| --- | --- |
| 0.64 nM | B10 |
| 0.82 nM | B11 |
| 0.77 nM | B1 |
| 0.53 nM | B12 |
| 0.35 nM | B13 |
| 0.51 nM | B14 |
| 0.25 nM | B2 |
| 0.31 nM | B3 |
| 1.08 nM | B16 |

Reference: US20160200813A1 (AbbVie / Abbott, published 2016)
